In patent US20110046068A1 (MEDICAL RESEARCH COUNCIL, published 2011):
Values belong to the binder of their own block, whether it stands above or below them. Non-standard residues stand in square brackets, D forms with d. No end group written: not given here.

Experiments:
human gpr-54 receptor [1] = molecular target: T1, human gpr-54 receptor (human, UniProt Q969F8 1-398); test: whole-cell competition binding against 125I-kisspeptin, CHO cells stably transfected with hGPR54 (CPM); no lower plateau reached at -5 LogM [186]
T1 construct: whole, on cells; CHO cells stably expressing the human gpr-54 receptor came from Prof; G. Vassart; also called kisspeptin receptor; AXOR12
Procedure: (§1) Cell monolayers were placed on ice and exposed to 0.5 mls peptide (10 pM-1 uM); the cells were then incubated at 4° C. for 4 hr. After 4 hrs, cells were washed twice with ice cold Dulbecco's phosphate buffered saline (DPBS; with Calcium and Magnesium) and then 0.5 mls 0.1M Sodium Hydroxide (NaOH) were added to cells for 20 minutes, shaking to lyse cells. Lysates were transferred to plastic tubes and bound radioactivity counted on the gamma counter for 60 seconds.

human gpr-54 receptor [2] = molecular target: T1, human gpr-54 receptor; test: cell-based or functional assay
human gpr-54 receptor [3] = molecular target: T1, human gpr-54 receptor; test: cell-based or functional assay; remark: listed apart in the source
human gpr-54 receptor [4] = molecular target: T1, human gpr-54 receptor; test: cell-based or functional assay; remark: listed apart in the source
human gpr-54 receptor [5] = molecular target: T1, human gpr-54 receptor; test: whole-cell competition binding against 125I-kisspeptin, CHO cells stably transfected with human GPR54 (CPM); no lower plateau reached at -5 LogM [211]
Procedure: as §1

human gpr-54 receptor [6] = molecular target: T1, human gpr-54 receptor; test: whole-cell competition binding against 125I-kisspeptin, CHO cells stably transfected with GPR54 (CPM); the curve falls between Total and -9 LogM [209]
Procedure: as §1

human gpr-54 receptor [7] = molecular target: T1, human gpr-54 receptor; test: cell-based or functional assay; remark: listed apart in the source
human gpr-54 receptor [8] = molecular target: T1, human gpr-54 receptor; test: whole-cell competition binding against 125I-kisspeptin, CHO cells stably transfected with GPR54 (CPM) [208]
Procedure: as §1

human gpr-54 receptor [9] = molecular target: T1, human gpr-54 receptor; test: whole-cell competition binding against 125I-kisspeptin, CHO cells stably transfected with GPR54 (CPM); the fall of the curve lies between Total and -10 LogM [231]
Procedure: as §1

human gpr-54 receptor [10] = molecular target: T1, human gpr-54 receptor; test: cell-based or functional assay; remark: listed apart in the source
human gpr-54 receptor [11] = molecular target: T1, human gpr-54 receptor; test: whole-cell competition binding against 125I-kisspeptin, CHO cells stably transfected with GPR54 (CPM); the fall of the curve lies between Total and -10 LogM [228]
Procedure: as §1

human gpr-54 receptor [12] = molecular target: T1, human gpr-54 receptor; test: cell-based or functional assay; remark: listed apart in the source

T1 sequence (Q969F8 whole entry): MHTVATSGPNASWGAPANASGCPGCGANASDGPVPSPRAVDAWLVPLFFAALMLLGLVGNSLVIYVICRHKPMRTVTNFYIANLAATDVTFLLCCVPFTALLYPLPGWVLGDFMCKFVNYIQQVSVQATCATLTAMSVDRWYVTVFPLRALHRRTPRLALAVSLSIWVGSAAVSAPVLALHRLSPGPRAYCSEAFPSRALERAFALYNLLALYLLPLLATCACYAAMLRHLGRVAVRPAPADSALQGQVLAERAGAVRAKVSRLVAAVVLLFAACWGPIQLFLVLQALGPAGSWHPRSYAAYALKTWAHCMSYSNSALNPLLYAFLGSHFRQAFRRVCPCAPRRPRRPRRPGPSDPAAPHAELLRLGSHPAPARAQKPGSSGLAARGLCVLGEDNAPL

IC50 (human gpr-54 receptor [1]): 1850 nM
IP stimulation (IC50), peptide alone (human gpr-54 receptor [2]): 150 nM
Inhibition of IP stimulation by 10nM Agonist: % Inhibition of Max (human gpr-54 receptor [2]): 70%
IP competition with 10nM kisspeptin-10: IC50 [186] (human gpr-54 receptor [3]): 0.5 nM
IP dose response, peptide alone: EC50 (unlabelled number beside rising curve) [186] (human gpr-54 receptor [3]): 592 nM
B1: 186 (peptide)
peptide: Ac-NSFGLRF-NH2
notes: kisspeptin-10 analogue; also called Peptide 186; acNSFGLRF

IP competition with 10nM kisspeptin-10: IC50 [211] (human gpr-54 receptor [4]): 1000 nM
IC50 (human gpr-54 receptor [5]): 4320 nM
IP stimulation (IC50), peptide alone (human gpr-54 receptor [2]): 2570 nM
Inhibition of IP stimulation by 10nM Agonist: % Inhibition of Max (human gpr-54 receptor [2]): 73%
Inhibition of IP stimulation by 10nM Agonist: IC50 (human gpr-54 receptor [2]): 1000 nM
B2: 211 (peptide)
peptide: YNWNG[dF]GLRF-NH2
modifications: N-terminus assumed
SMILES: CC(C)C[C@H](NC(=O)CNC(=O)[C@@H](Cc1ccccc1)NC(=O)CNC(=O)[C@H](CC(N)=O)NC(=O)[C@H](Cc1c[nH]c2ccccc12)NC(=O)[C@H](CC(N)=O)NC(=O)[C@@H](N)Cc1ccc(O)cc1)C(=O)N[C@@H](CCCNC(=N)N)C(=O)N[C@@H](Cc1ccccc1)C(N)=O
notes: kisspeptin-10 analogue; also called YNWNG[(D)-F]GLRF

IC50 (human gpr-54 receptor [6]): 0.0157 nM
Inhibition of IP stimulation by 10nM Agonist: % Inhibition of Max (human gpr-54 receptor [2]): 81%
Inhibition of IP stimulation by 10nM Agonist: IC50 (human gpr-54 receptor [2]): 100 nM
IP competition with 10nM kisspeptin-10: IC50 [209] (human gpr-54 receptor [7]): 100 nM
B3: 209 (peptide)
peptide: YNWNGFG[dL]RF-NH2
modifications: N-terminus assumed
SMILES: CC(C)C[C@@H](NC(=O)CNC(=O)[C@H](Cc1ccccc1)NC(=O)CNC(=O)[C@H](CC(N)=O)NC(=O)[C@H](Cc1c[nH]c2ccccc12)NC(=O)[C@H](CC(N)=O)NC(=O)[C@@H](N)Cc1ccc(O)cc1)C(=O)N[C@@H](CCCNC(=N)N)C(=O)N[C@@H](Cc1ccccc1)C(N)=O
notes: kisspeptin-10 analogue; also called Peptide 209; YNWNGFG[(D)-L]RF

IP stimulation (IC50), peptide alone (human gpr-54 receptor [2]): 45.6 nM
Inhibition of IP stimulation by 10nM Agonist: % Inhibition of Max (human gpr-54 receptor [2]): 55%
Inhibition of IP stimulation by 10nM Agonist: IC50 (human gpr-54 receptor [2]): 1000 nM
Antagonistic assay with kisspeptin-10: IC50 [208] (human gpr-54 receptor [7]): 1000 nM
IC50 (human gpr-54 receptor [8]): 70.3 nM
B4: 208 (peptide)
peptide: YNWNGFGLRF-NH2
notes: kisspeptin-10 analogue

Inhibition of IP stimulation by 10nM Agonist: % Inhibition of Max (human gpr-54 receptor [2]): 55%
Inhibition of IP stimulation by 10nM Agonist: IC50 (human gpr-54 receptor [2]): 0.1 nM
IC50 (human gpr-54 receptor [9]): 0.000564 nM
IP competition with 10nM kisspeptin-10: IC50 [231] (human gpr-54 receptor [10]): 0.1 nM
B5: 231 (peptide)
peptide: Ac-YN[dW]NGFG[dW]RF-NH2
SMILES: CC(=O)N[C@@H](Cc1ccc(O)cc1)C(=O)N[C@@H](CC(N)=O)C(=O)N[C@H](Cc1c[nH]c2ccccc12)C(=O)N[C@@H](CC(N)=O)C(=O)NCC(=O)N[C@@H](Cc1ccccc1)C(=O)NCC(=O)N[C@H](Cc1c[nH]c2ccccc12)C(=O)N[C@@H](CCCNC(=N)N)C(=O)N[C@@H](Cc1ccccc1)C(N)=O
notes: kisspeptin-10 analogue; also called acYN[(D)-W]NGFG[(D)-W]RF

IC50 (human gpr-54 receptor [11]): 0.00655 nM
Inhibition of IP stimulation by 10nM Agonist: % Inhibition of Max (human gpr-54 receptor [2]): 58%
Inhibition of IP stimulation by 10nM Agonist: IC50 (human gpr-54 receptor [2]): 50 nM
IP competition with 10nM kisspeptin-10: IC50 [228] (human gpr-54 receptor [12]): 50 nM
B6: 228 (peptide)
peptide: Ac-YNWNGFG[dW]RF-NH2
SMILES: CC(=O)N[C@@H](Cc1ccc(O)cc1)C(=O)N[C@@H](CC(N)=O)C(=O)N[C@@H](Cc1c[nH]c2ccccc12)C(=O)N[C@@H](CC(N)=O)C(=O)NCC(=O)N[C@@H](Cc1ccccc1)C(=O)NCC(=O)N[C@H](Cc1c[nH]c2ccccc12)C(=O)N[C@@H](CCCNC(=N)N)C(=O)N[C@@H](Cc1ccccc1)C(N)=O
notes: kisspeptin-10 analogue; also called acYNWNGFG[(D)-W]RF
